Test results from patent publication US20110190218A1 (KARLSRUHE INSTITUTE OF TECHNOLOGY, published 2011).

Biological target: GST-Bag-1L-(202-345) (human, UniProt P08515 1-218 = GST; Q99933 202-345)
Experiment: GST pull-down from lysates of Bag-1L-transfected cells, immunoblot with Bag-1L specific antibody

B1: Bag-1L (in lysates from Bag-1L-transfected cells) (other)
chain: MAQRGGARRPRGDRERLGSRLRALRPGREPRQSEPPAQRGPPPSGRPPARSTASGHDRPTRGAAAGARRPRMKKKTRRRSTRSEELTRSEELTLSEEATWSEEATQSEEATQGEEMNRSQEVTRDEESTRSEEVTREEMAAAGLTVTVTHSNEKHDLHVTSQQGSSEPVVQDLAQVVEEVIGVPQSFQKLIFKGKSLKEMETPLSALGIQDGCRVMLIGKKNSPQEEVELKKLKHLEKSVEKIADQLEELNKELTGIQQGFLPKDLQAEALCKLDRRVKATIEQFMKILEEIDTLILPENFKDSRLKRKGLVKKVQAFLAECDTVEQNICQETERLQSTNFALAE
notes: Untagged Bag-1L as the soluble partner in the test for dimerization; also called human Bag-1L; p50
binding result: no binding
